Measured values published in patent publication US20100316665A1.

T1: OmpC porin purified from Salmonella typhi (Salmonella enterica subsp. enterica serovar Typhi), A0A0H3
T1 chain: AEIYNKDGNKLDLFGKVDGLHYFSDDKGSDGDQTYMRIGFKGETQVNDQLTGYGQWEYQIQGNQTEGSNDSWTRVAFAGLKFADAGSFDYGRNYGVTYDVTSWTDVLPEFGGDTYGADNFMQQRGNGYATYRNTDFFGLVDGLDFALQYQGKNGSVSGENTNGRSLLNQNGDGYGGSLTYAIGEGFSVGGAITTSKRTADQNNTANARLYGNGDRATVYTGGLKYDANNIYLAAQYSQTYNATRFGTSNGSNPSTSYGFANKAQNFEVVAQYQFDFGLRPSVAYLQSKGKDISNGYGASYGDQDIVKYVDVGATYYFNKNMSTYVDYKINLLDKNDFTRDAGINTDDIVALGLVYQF

T2: OmpF porin purified from Salmonella typhi (Salmonella enterica subsp. enterica serovar Typhi), Q56113
T2 chain: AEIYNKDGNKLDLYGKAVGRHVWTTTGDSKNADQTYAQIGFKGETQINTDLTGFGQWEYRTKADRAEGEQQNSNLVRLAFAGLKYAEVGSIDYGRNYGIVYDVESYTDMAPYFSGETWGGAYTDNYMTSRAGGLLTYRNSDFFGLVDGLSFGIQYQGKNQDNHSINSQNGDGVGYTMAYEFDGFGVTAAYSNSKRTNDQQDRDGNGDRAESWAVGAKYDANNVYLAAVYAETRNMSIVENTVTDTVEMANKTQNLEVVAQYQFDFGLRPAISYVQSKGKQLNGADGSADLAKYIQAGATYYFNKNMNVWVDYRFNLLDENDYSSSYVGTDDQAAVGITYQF


Key:
[1] = biological target: T1, OmpC porin purified from Salmonella …; assay: phage display panning on OmpC, frequency of occurrence among sequenced binders
[2] = biological target: T2, OmpF porin purified from Salmonella …; assay: phage display panning on OmpF, frequency of occurrence among sequenced binders

Binder | Frequency (fraction of sequenced phage) [1] | Frequency (fraction of sequenced phage) [2]
SLSLIQT (modifications not checked) [affinity peptide SLSLIQT] | 0.125 | 
TATYLLD (modifications not checked) [affinity peptide TATYLLD] | 0.125 | 
FHENWPS (modifications not checked) [affinity peptide FHENWPS] |  | 0.6
FHEFWPT (modifications not checked) [affinity peptide FHEFWPT] |  | 0.4
EAKGLIR (modifications not checked) [affinity peptide EAKGLIR] | 0.75 | 
